Measurements as given in US20180282403A1, “AGENTS FOR REDUCING THE ACTIVITY OF GDF15” (GENAGON THERAPEUTICS AB, priority 2015, published 2018).

Tests used:
Type in all cases: cell-based
CLPTM1 [1] = target: T1, CLPTM1 (Homo sapiens, UniProt O96005); assay: In situ PLA detection of the CLPTM1-TGFBRII complex in NK cells; settings: GDF15 treatment; FIG. 15
T1 construct: endogenous in cells; host or cells: NK-92 cells
T1 sequence (O96005 1-669): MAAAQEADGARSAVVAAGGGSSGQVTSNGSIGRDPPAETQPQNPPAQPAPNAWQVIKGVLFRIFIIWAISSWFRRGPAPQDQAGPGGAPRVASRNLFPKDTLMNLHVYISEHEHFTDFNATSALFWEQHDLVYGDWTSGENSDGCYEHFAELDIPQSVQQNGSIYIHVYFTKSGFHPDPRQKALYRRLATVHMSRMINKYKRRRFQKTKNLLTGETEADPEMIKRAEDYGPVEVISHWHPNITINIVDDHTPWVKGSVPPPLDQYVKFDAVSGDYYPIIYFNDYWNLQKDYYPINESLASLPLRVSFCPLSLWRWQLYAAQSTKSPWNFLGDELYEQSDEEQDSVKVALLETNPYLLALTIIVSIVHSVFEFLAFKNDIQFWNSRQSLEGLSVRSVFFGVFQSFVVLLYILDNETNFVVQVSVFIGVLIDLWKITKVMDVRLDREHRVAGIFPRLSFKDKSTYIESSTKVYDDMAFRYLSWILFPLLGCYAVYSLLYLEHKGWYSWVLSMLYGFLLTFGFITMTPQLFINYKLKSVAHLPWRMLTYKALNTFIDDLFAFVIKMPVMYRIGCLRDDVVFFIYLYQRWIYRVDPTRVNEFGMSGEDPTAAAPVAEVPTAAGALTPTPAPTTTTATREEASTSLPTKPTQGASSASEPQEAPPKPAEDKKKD
From the text: It was not known whether TGFBRI localised with CLPTM1 independently from the corresponding Type II receptor TGFBRII, or whether the TGFBRI-TGFBRII heterocomplex associated with CLPTM1 upon GDF15 stimulation. In order to determine this, a second in situ PLA assay was developed, using antibodies towards TGFBRII in concert with CLPTM1 antibodies from another species. […] (FIG. 15)

CLPTM1 [2] = target: T1, CLPTM1; assay: In situ PLA detection of the CLPTM1-TGFBRI complex in NK-92 cells; settings: GDF15 stimulation, FIG. 14
Method: GDF15 has been reported in the literature to mediate downstream signalling resembling both the canonical (SMAD) pathway mediated by ALK5(TGFBRI) kinase domain, and non-canonical TGFβ receptor signalling, such as phosphorylation of GSK3b. In order to investigate if CLPTM1 was involved in this we developed a set of in situ PLA assays to determine the dynamics between CLPTM1 and the TGFβ receptors and components downstream of the TGFβ receptors. NK-92 cells were treated with GDF15 for 40 min to detect phosphorylated SMAD proteins such as SMAD2 in the nucleus. […] From previous experiments with TGFB1 stimulation we know that the assay (pSMAD2) was functional.

QRFPR [3] = target: T2, QRFPR (Homo sapiens, UniProt Q96P65); assay: QRFPR levels after prolonged GDF15 stimulation with or without proteasome inhibition; settings: GDF15 18 hrs, absence of MG132; FIG. 6B
T2 construct: endogenous in cells
T2 sequence (Q96P65 1-431): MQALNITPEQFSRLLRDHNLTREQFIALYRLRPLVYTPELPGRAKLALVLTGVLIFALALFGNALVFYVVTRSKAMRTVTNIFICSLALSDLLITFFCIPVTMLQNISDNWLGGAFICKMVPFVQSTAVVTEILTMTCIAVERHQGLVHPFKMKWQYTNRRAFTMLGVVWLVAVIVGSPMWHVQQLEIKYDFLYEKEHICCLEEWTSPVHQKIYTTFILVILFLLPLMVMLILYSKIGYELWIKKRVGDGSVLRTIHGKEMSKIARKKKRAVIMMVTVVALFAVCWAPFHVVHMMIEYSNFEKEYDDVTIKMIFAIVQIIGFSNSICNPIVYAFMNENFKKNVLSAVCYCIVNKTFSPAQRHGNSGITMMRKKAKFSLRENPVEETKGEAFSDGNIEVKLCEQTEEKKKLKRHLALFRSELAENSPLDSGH
Method: This effect is not seen in cells which are treated with MG132 (FIG. 6D).

QRFPR [4] = target: T2, QRFPR; assay: In situ PLA detection of ACTRIIB-QRFPR proximity in MCF7 cells; settings: serum-starved MCF7 cells, GDF15 20 minutes; FIG. 3A-B
Method: MCF7 cells were stimulated with GDF15 (GDF15 from isolated mammalian source or recombinant derived from E. coli purchased from Abcam and Biovision). An assay was developed for monitoring the activity of GDF15 and to investigate the dynamics of receptor(s) such as QRFPR modulation by the ligand.
Serum-starved MCF7 cells were treated with GDF15, and an in situ PLA detection assay was developed to detect the interaction between ACTRIIB and QRFPR using antibodies from two different species, thus allowing the use of Duolink secondary detection reagents. The presence of the QRFPR-ACTRIIB complex was detected in the absence of GDF15 (see FIG. 3A, indicated by arrows).

QRFPR [5] = assay: In situ PLA detection of QRFPR at the cell surface in U2OS osteosarcoma cells; settings: U2OS cells, GDF15 alone; FIG. 9E
From the text: A-D) In situ PLA detection of the Rab11-QRFPR complex following exposure of MCF7 cells to GDF15. A) +Ctrl peptide. B) +QRFPR extracellular N-terminal peptide. C-D) +QRFPR extracellular loop3 (domain 4) peptide. The level of the Rab11-QRFPR complex is reduced by the peptide from extracellular loop3 of QRFPR. E) in situ PLA detection of QRFPR in U2OS osteosarcoma cells.
We choose to use this assay as a way to investigate if the activity of GDF15 could be inhibited by various agents. […] GDF15-induced formation of RAB11/QRFPR endosomes is inhibited by QRFPR peptides (FIG. 9A-D). Equal amounts of a mastermix of GDF15 was aliquoted and pre-incubated in PBS with the various receptor fragment before addition to cells. Sequentially, the cells were treated with either PBS, GDF15 or GDF15/QRFPR-derived peptide mixes.

QRFPR [6] = target: T2, QRFPR; assay: In situ PLA detection of CD9-QRFPR proximity; settings: GDF15 30 minutes; FIG. 4
From the text: The tetraspanin CD9 has dual roles, both in endosome trafficking and in exosome secretion (Mazurov et al.). An in situ PLA assay was developed to detect the proximity of CD9 and QRFPR using antibodies against CD9 and QRFPR. In the absence of GDF15, only a low signal level is observed (FIGS. 4A and 4C).

QRFPR [7] = target: T2, QRFPR; assay: In situ PLA detection of RAB4-QRFPR double positive endosomes; settings: GDF15 stimulation alone; FIG. 7
Method: An assay was developed to detect the proximity of RAB4-QRFPR using antibodies against RAB4 and QRFPR.
In short, the cells were serum starved overnight then pre-incubated with blocking antibodies towards extracellular parts of QRFPR for 2 hrs prior to GDF15 treatment (1 μg/ml) for 30 minutes. The levels of formed RAB4-QRFPR complexes were measured by visualization of formed RCA products using the Duolink is PLA system (see FIG. 11).

CLPTM1 proximity to TGFBRII (CLPTM1 [1]): induced CLPTM1 proximity to TGFBRII | levels of QRFPR (QRFPR [3]): dramatically reduced the levels of QRFPR | ACTRIIB-QRFPR in situ PLA signal (QRFPR [4]): reduced by GDF15 treatment | CD9-QRFPR complex signal (QRFPR [6]): higher level of signal
Substance: GDF15: Growth and differentiation factor 15, from mammalian source or recombinant from E. coli (Abcam, Biovision)
proximity between CLPTM1 and TGFBRI(ALK5) (CLPTM1 [2]): induced proximity between CLPTM1 and TGFBRI(ALK5) | level of QRFPR at the cell surface (QRFPR [5]): reduced by GDF15 | RAB4-QRFPR double positive endosomes (QRFPR [7]): formation of RAB4-QRFPR double positive endosomes was detected
